Consider three substances from patent US20230094162A1.

Like-named read-outs stand apart in the source and are kept apart here.

The target of test [1] is CD137 expressed on the cell surface (CHO/CD137 cells) (UniProt Q07011). The test can be described thus: cell-based or functional assay.
Test [2] has the same target. Description: flow cytometry on CHO/CD137 cells (Surface Binding).
Test [3] has the same target. The test can be described thus: flow cytometry (FACS) on CHO cells expressing CD137, MFI.
The target in test [4] is PD-L1 expressed on the cell surface (CHO/PD-L1 cells) (UniProt Q9NZQ7).
PD-L1 expressed on the cell surface (CHO/PD-L1 cells), sequence (Q9NZQ7 19-290): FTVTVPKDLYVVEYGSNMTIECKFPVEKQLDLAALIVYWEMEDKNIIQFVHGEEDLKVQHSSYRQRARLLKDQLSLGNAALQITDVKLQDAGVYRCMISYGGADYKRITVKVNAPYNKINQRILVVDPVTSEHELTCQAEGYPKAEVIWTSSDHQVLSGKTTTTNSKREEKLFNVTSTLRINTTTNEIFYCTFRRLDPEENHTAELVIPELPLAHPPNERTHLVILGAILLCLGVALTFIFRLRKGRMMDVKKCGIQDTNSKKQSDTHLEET
The target is the same in test [5]. Description: flow cytometry (FACS) on CHO cells expressing PD-L1, MFI.

CD137 expressed on the cell surface (CHO/CD137 cells), sequence (Q07011 24-255 limits assumed): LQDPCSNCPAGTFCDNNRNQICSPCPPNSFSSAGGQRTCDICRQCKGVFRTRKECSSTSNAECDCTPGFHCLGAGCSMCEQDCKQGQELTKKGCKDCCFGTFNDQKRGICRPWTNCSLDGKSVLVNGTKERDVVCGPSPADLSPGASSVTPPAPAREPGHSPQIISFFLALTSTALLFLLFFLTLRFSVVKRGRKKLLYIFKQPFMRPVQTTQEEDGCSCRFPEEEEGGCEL

In test [1], non-specific mAb (antibody) had a Reporter Assay (RLU), 0.08 µg/mL of 1250 RLU; a Reporter Assay (RLU), IgG conc 0.02 µg/mL of 1020 RLU; a Reporter Assay (RLU), IgG conc 0.1 µg/mL of 1240 RLU. In addition, in test [2], the MFI max came to 149 MFI.

In test [3], “replica of the agonistic anti-CD137 mAb urelumab (r-urelumab) (antibody)” returned an EC50 (read off the curve) of 0.06 µg/mL.

As for “replica of the anti-PD-L1 antibody atezolizumab (r-atezolizumab)”, the values for the EC50 (read off the curve) in test [4] and in test [5] were 0.3 µg/mL and 0.01 µg/mL, respectively.
